Assay results as given in paper doi:10.1101/2023.06.21.544075 (bioRxiv, 2023).

B1: hOvst-cleaved hZP2-N1N2N3 (domain or fragment)
chain 1: not shown
chain 2: not shown
B2: mouse ZP2 NTR ΔN1 construct mZP2-N2N3 (domain or fragment, UniProt P20239 135-360, looked up)
chain: PAIQAETHEISEIVVCRRDLISFSFPQLFSRLADENQNVSEMGWIVKIGNGTRAHILPLKDAIVQGFNLLIDSQKVTLHVPANATGIVHYVQESSYLYTVQLELLFSTTGQKIVFSSHAICAPDLSVACNATHMTLTIPEFPGKLESVDFGQWSIPEDQWHANGIDKEATNGLRLNFRKSLLKTKPSEKCPFYQFYLSSLKLTFYFQGNMLSTVIDPECHCESPVS

What was measured:
SEC-MALS = molecular target: the molecule itself; test: SEC-MALS
crystal structure = molecular target: the molecule itself; test: crystal structure

| Protein | stoichiometry N (SEC-MALS) | stoichiometry N (crystal structure) |
| --- | --- | --- |
| B1 | 2 |  |
| B2 |  | 2 |
